Residue numbers refer to the chain shown, from its start. In names and notes the source's numbering stands.
B1: AlaPro-mTGase from S. mobaraensis (enzyme)
chain: APDSDDRVTPPAEPLDRMPDPYRPSYGRAETVVNNYIRKWQQVYSHRDGRKQQMTEEQREWLSYGCVGVTWVNSGQYPTNRLAFASFDEDRFKNELKNGRPRSGETRAEFEGRVAKESFDEEKGFQRAREVASVMNRALENAHDESAYLDNLKKELANGNDALRNEDARSPFYSALRNTPSFKERNGGNHDPSRMKAVIYSKHFWSGQDRSSSADKRKYGDPDAFRPAPGTGLVDMSRDRNIPRSPTSPGEGFVNFDYGWFGAQTEADADKTVWTHGNHYHAPNGSLGAMHVYESKFRNWSEGYSDFDRGAYVITFIPKSWNTAPDKVKQGWP
B2: GlyPro-mTGase_Y75F from S. ladakanum (enzyme)
chain: GPDSDERVTPPAEPLDRMPDPYRPSYGRAETIVNNYIRKWQQVYSHRDGRKQQMTEEQREWLSYGCVGVTWVNSGQFPTNRLAFAFFDEDKYKNELKNGRPRSGETRAEFEGRVAKDSFDEAKGFQRARDVASVMNKALENAHDEGAYLDNLKKELANGNDALRNEDARSPFYSALRNTPSFKDRNGGNHDPSKMKAVIYSKHFWSGQDRSGSSDKRKYGDPEAFRPDRGTGLVDMSRDRNIPRSPTSPGESFVNFDYGWFGAQTEADADKTVWTHGNHYHAPNGSLGAMHVYESKFRNWSDGYSDFDRGAYVVTFVPKSWNTAPDKVKQGWP
B3: GlyPro-mTGase_Y62H_Y75F from S. ladakanum (enzyme)
chain: B2 chain with Y64H, K329T
B4: GlyPro-mTGase_Y62H_Y75N from S. ladakanum (enzyme)
chain: B2 chain with Y64H, F77N
B5: GlyPro-mTGase_Y75N from S. ladakanum (enzyme)
chain: B2 chain with F77N
B6: GlyPro-mTGase from S. ladakanum (enzyme)
chain: B2 chain with F77Y
B7: GlyPro-mTGase_Y75A from S. ladakanum (enzyme)
chain: B2 chain with F77A
B8: S. ladakanum GlyPro-TGase mutant S250M (enzyme)
chain: B2 chain with F77Y, S252M
B9: S. ladakanum GlyPro-TGase mutant S250W (enzyme)
chain: B2 chain with F77Y, S252W
B10: S. ladakanum GlyPro-TGase mutant Y75C (enzyme)
chain: B2 chain with F77C
B11: S. ladakanum GlyPro-TGase mutant S250H (enzyme)
chain: B2 chain with F77Y, S252H
B12: S. ladakanum GlyPro-TGase mutant S250Q (enzyme)
chain: B2 chain with F77Y, S252Q
B13: S. ladakanum GlyPro-TGase mutant S250A (enzyme)
chain: B2 chain with F77Y, S252A
B14: S. ladakanum GlyPro-TGase mutant Y62M (enzyme)
chain: B2 chain with Y64M, F77Y
B15: S. ladakanum GlyPro-TGase mutant S250R (enzyme)
chain: B2 chain with F77Y, S252R
B16: S. ladakanum GlyPro-TGase mutant Y62L (enzyme)
chain: B2 chain with Y64L, F77Y
B17: S. ladakanum GlyPro-TGase mutant Y75L (enzyme)
chain: B2 chain with F77L
B18: S. ladakanum GlyPro-TGase mutant Y62N (enzyme)
chain: B2 chain with Y64N, F77Y
B19: S. ladakanum GlyPro-TGase mutant Y62T (enzyme)
chain: B2 chain with Y64T, F77Y
B20: S. ladakanum GlyPro-TGase mutant S250P (enzyme)
chain: B2 chain with F77Y, S252P
B21: S. ladakanum GlyPro-TGase mutant S250C (enzyme)
chain: B2 chain with F77Y, S252C
B22: S. ladakanum GlyPro-TGase mutant S250Y (enzyme)
chain: B2 chain with F77Y, S252Y
B23: S. ladakanum GlyPro-TGase mutant S250L (enzyme)
chain: B2 chain with F77Y, S252L
B24: S. ladakanum GlyPro-TGase mutant S250F (enzyme)
chain: B2 chain with F77Y, S252F
B25: S. ladakanum GlyPro-TGase mutant S250G (enzyme)
chain: B2 chain with F77Y, S252G
B26: S. ladakanum GlyPro-TGase mutant Y75M (enzyme)
chain: B2 chain with F77M
B27: S. ladakanum GlyPro-TGase mutant S250D (enzyme)
chain: B2 chain with F77Y, S252D
B28: S. ladakanum GlyPro-TGase mutant S250V (enzyme)
chain: B2 chain with F77Y, S252V

molecular target: wild type human growth hormone (human, UniProt P01241 27-217); assay: cell-based or functional assay
Sequence (P01241 27-217): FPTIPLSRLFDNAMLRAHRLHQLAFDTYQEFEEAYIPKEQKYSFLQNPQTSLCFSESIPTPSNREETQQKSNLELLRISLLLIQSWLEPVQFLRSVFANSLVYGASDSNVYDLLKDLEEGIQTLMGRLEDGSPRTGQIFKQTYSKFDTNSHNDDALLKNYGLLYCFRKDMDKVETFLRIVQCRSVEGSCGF

Going from B1 to B2, the “RS (relative selectivity against AlaPro-mTGase from S. mobaraensis)” value rises from 1 to 5.1.

First: B3
Second: B4
The “RS (relative selectivity against AlaPro-mTGase from S. mobaraensis)” value of the first is higher: 6.4 for the first, 4.6 for the second.

First: B5
Second: B6
The “RS (relative selectivity against AlaPro-mTGase from S. mobaraensis)” value of the first is higher: 3.4 for the first, 1.8 for the second.

In the case of B7, the “RS (relative selectivity against AlaPro-mTGase from S. mobaraensis)” value is reported as 3.

molecular target: hGHQ40N (human, UniProt P01241 27-217); assay: cell-based or functional assay
Sequence (P01241 27-217 Q66N): as the sequence (P01241 27-217) above, with Q40N counted along it

First: B8
Second: B9
The “RSA Q141” value of the first is higher: 3.25 relative to wild type TGase for the first, 2.43 relative to wild type TGase for the second.

First: B10
Second: B11
The “RSA Q141” value of the first is lower: 0.18 relative to wild type TGase for the first, 2.25 relative to wild type TGase for the second.

First: B12
Second: B13
The “RSA Q141” value of the first is lower: 1.92 relative to wild type TGase for the first, 4.23 relative to wild type TGase for the second.

First: B14
Second: B15
The “RSA Q141” value of the first is lower: 0.28 relative to wild type TGase for the first, 0.83 relative to wild type TGase for the second.

First: B16
Second: B17
The “RSA Q141” value of the first is higher: 0.2 relative to wild type TGase for the first, 0.18 relative to wild type TGase for the second.

First: B18
Second: B19
The “RSA Q141” value of the first is lower: 0.18 relative to wild type TGase for the first, 0.19 relative to wild type TGase for the second.

First: B20
Second: B21
The “RSA Q141” value of the first is lower: 3.99 relative to wild type TGase for the first, 5.34 relative to wild type TGase for the second.

Compared with B22, B23 is higher in “RSA Q141” value: 1.71 relative to wild type TGase for the first, 3.59 relative to wild type TGase for the second.

Compared with B24, B25 is lower in “RSA Q141” value: 2.63 relative to wild type TGase for the first, 2.42 relative to wild type TGase for the second.

Compared with B26, B27 is higher in “RSA Q141” value: 0.18 relative to wild type TGase for the first, 1.04 relative to wild type TGase for the second.

Compared with B28, B7 is lower in “RSA Q141” value: 0.96 relative to wild type TGase for the first, 0.06 relative to wild type TGase for the second.

molecular target: hGHQ141N (human, UniProt P01241 27-217); assay: cell-based or functional assay
Sequence (P01241 27-217 Q167N): as the sequence (P01241 27-217) above, with Q141N counted along it

Compared with B8, B9 is lower in “RSA Q40” value: 2.22 relative to wild type TGase for the first, 1.3 relative to wild type TGase for the second.

First: B10
Second: B11
The “RSA Q40” value of the first is lower: 0.06 relative to wild type TGase for the first, 1.4 relative to wild type TGase for the second.

Compared with B12, B13 is higher in “RSA Q40” value: 1.62 relative to wild type TGase for the first, 2.57 relative to wild type TGase for the second.

First: B14
Second: B15
The “RSA Q40” value of the first is lower: 0.1 relative to wild type TGase for the first, 0.59 relative to wild type TGase for the second.

First: B16
Second: B17
The “RSA Q40” value of the first is higher: 0.07 relative to wild type TGase for the first, 0.06 relative to wild type TGase for the second.

First: B18
Second: B19
The “RSA Q40” value of the first is lower: 0.05 relative to wild type TGase for the first, 0.1 relative to wild type TGase for the second.

Compared with B20, B21 is higher in “RSA Q40” value: 1.86 relative to wild type TGase for the first, 3.02 relative to wild type TGase for the second.

Compared with B22, B23 is higher in “RSA Q40” value: 0.95 relative to wild type TGase for the first, 1.9 relative to wild type TGase for the second.

First: B24
Second: B25
The “RSA Q40” value of the first is higher: 1.85 relative to wild type TGase for the first, 1.77 relative to wild type TGase for the second.

First: B26
Second: B27
The “RSA Q40” value of the first is lower: 0.1 relative to wild type TGase for the first, 0.76 relative to wild type TGase for the second.

Compared with B28, B7 is lower in “RSA Q40” value: 0.51 relative to wild type TGase for the first, 0.03 relative to wild type TGase for the second.
